Reference: patent publication US10975123B2, “Mutant Akt-specific capture agents, compositions, and methods of using and making” (California Institute of Technology, priority 2014, dated 2021)
Primed or numbered codes have the meaning given here. Where no end group is shown, it is not given here. [ ]: non-standard residue; d: D form. PEG5′ = PEG5 linker

Experiments:
full length Akt1E17K = full length Akt1E17K (Homo sapiens, UniProt P31749, E17K); assay: Fluorescence polarization binding to full-length E17K Akt1; details: triligand 9, triplicate, in words
Protocol: FIG. 2: Anchor ligand structure and characterization. (FIG. 2A) The peptide anchor ligand, yleaf (SEQ ID NO: 43), which was discovered using the epitope-targeting technique. The different sets of R groups indicate the modifications that were made to perform the various experiments described. (FIG. 2B) Point ELISA for specificity obtained by immobilizing biotinylated yleaf (SEQ ID NO: 43) anchor ligand 2 onto a Neutravidin plate, then incubating with a 6 His-tagged epitope (“6 His” disclosed as SEQ ID NO: 4) 3. […] (FIG. 2C) Binding curves of yleaf (SEQ ID NO: 43) anchor ligand 4 to the full-length WT or E17K mutant Akt1 proteins obtained in solution by fluorescence polarization. A saturation point for the WT ligand was not reached due to the prohibitively high protein concentration required. (FIG. 2D) Full binding curves of yleaf (SEQ ID NO: 43) anchor ligand 4 to the WT or E17K mutant epitopes. […] All assays were performed in triplicate and averaged. Error bars indicate standard deviation.
FIG. 5: The PCC agent triligand development strategy, structure, and inhibition data. (FIG. 5A) The yleaf (SEQ ID NO: 43) anchor ligand with a C-terminal alkyne 2 was screened against an azide-terminated library in the presence of the full-length PH Domain to identify a biligand. The biligand 7 was then appended with an N-terminal azide and screened against an alkyne library to identify a triligand. […]

[1] = molecular target: T1, HEK-293T cells expressing GFP-tagged E17K PH Domain (Homo sapiens, UniProt P31749, E17K); assay: Cell imaging, cells expressing E17K protein; type: cell-based; details: confocal imaging, 50 nM, compared with WT cells, in words
T1 construct: transfected to express GFP-tagged E17K or GFP-tagged WT PH Domain proteins; expressed in transfected cells; host or cells: HEK-293T
Text: The yleaf ligand was then labeled with both a Tat cell-penetrating peptide^22 and a Cy5 dye (FIG. 2a). The combination of the GFP label on the protein and the Cy5 label on the dye permitted the use of multi-color fluorescence microscopy for interrogating any spatial registry between the two fluorescent labels, as well as tracking the efficiency of the protein expression in the cells. Live HEK-293T cells expressing these GFP-tagged proteins were exposed to varying concentrations of the modified yleaf anchor ligand 6 for one hour. The cells were then incubated in fresh media for one hour before being thoroughly washed in PBS to remove weakly and nonspecifically bound PCC and fixed for fluorescence microscopy measurements.
However, the level of the PCC agent retained by the cells was substantially different (FIG. 4). […] Pearson's correlation coefficient was used to quantify the co-localization of the two different dyes^23 by calculating over four representative images for each of the WT or E17K mutant cells and averaging the results. […] The Cy5 fluorescence intensity on a per cell basis has also been calculated for the cells expressing the WT and E17K proteins, and this difference is again statistically significant (p=0.00018). […]

Sequence of full length Akt1E17K (P31749 whole entry E17K): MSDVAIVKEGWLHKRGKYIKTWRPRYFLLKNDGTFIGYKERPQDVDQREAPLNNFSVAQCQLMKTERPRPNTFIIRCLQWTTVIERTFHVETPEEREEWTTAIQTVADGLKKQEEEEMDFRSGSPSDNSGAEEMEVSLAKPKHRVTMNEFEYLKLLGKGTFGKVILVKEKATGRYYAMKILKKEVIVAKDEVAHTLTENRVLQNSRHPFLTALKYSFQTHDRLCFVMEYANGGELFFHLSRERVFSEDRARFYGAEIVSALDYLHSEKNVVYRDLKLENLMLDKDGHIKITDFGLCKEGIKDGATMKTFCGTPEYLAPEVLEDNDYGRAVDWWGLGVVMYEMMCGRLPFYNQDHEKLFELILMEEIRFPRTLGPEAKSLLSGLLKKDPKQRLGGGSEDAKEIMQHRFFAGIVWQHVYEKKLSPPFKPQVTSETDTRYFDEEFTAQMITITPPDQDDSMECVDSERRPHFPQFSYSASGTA
T1 sequence (P31749 5-108 E17K limits assumed): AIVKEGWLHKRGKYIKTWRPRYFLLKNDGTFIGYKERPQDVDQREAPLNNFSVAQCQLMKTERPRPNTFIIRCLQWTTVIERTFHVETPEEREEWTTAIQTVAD

Substance	selectivity for E17K over WT full-length protein by fluorescence polarization (full length Akt1E17K)	retention of Cy5-labeled ligand in cells expressing E17K PH Domain (Cy5 signal) [1]
triligand 9: form of the ivdae-yleaf-yksy triligand used in fluorescence polarization assays (peptide 1 [dI][dV][dD][dA][dE]; peptide 2 [dY][dL][dE][dA][dF]; peptide 3 [dY][dK][dS][dY]; also: three chains joined by triazole click linkages (Lys(N3) and Pra handles), places not settled)	E17K mutant selectivity is retained	
PEG5-TAT-Cy5: control construct with no anchor ligand peptide, used in cell imaging ([PEG5′]YGRKKRRQRR; not fully specified (C-terminus); numbers in words are those of the source; also: Cy5 dye attached, site not given here)		looks the same as the WT PH Domain images
